# Assay results from IntAct's records for PubMed 26449471.
# B1: Sestrin-2 (Homo sapiens), P58004 (parent)
# chain: MIVADSECRAELKDYLRFAPGGVGDSGPGEEQRESRARRGPRGPSAFIPVEEVLREGAESLEQHLGLEALMSSGRVDNLAVVMGLHPDYFTSFWRLHYLLLHTDGPLASSWRHYIAIMAAARHQCSYLVGSHMAEFLQTGGDPEWLLGLHRAPEKLRKLSEINKLLAHRPWLITKEHIQALLKTGEHTWSLAELIQALVLLTHCHSLSSFVFGCGILPEGDADGSPAPQAPTPPSEQSSPPSRDPLNNSGGFESARDVEALMERMQQLQESLLRDEGTSQEEMESRFELEKSESLLVTPSADILEPSPHPDMLCFVEDPTFGYEDFTRRGAQAPPTFRAQDYTWEDHGYSLIQRLYPEGGQLLDEKFQAAYSLTYNTIAMHSGVDTSVLRRAIWNYIHCVFGIRYDDYDYGEVNQLLERNLKVYIKTVACYPEKTTRRMYNLFWRHFRHSEKVHVNLLLLEARMQAALLYALRAITRYMT
# partner: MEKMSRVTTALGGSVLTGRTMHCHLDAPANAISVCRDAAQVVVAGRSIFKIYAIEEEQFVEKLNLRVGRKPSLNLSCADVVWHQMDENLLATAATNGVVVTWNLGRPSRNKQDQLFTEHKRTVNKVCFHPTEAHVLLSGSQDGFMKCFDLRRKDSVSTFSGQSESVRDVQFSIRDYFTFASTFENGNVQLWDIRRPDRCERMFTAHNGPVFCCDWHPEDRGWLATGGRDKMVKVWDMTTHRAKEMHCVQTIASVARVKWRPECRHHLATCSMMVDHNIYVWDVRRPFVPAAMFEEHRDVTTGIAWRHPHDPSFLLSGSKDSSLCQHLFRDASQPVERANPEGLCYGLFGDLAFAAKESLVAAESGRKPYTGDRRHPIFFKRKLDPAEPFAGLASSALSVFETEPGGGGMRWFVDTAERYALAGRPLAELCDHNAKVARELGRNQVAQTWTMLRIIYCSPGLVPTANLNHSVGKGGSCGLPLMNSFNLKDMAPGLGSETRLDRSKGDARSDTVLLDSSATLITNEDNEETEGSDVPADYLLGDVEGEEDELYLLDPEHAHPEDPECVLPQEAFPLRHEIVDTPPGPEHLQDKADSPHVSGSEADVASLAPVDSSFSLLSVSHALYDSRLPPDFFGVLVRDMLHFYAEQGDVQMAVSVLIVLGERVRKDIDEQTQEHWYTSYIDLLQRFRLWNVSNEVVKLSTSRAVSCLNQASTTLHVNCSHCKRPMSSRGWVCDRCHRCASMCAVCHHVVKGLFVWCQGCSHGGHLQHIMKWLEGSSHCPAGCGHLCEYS
# Variants of: B1
# Settings: with wdr24_human WDR24, Q96S15
row,effect of a mutation on the interaction,Variant
1,disrupting interaction strength,MIVADSECRAELKDYLRFAPGGVGDSGPGEEQRESRARRGPRGPSAFIPVEEVLREGAESLEQHLGLEALMSSGRVDNLAVVMGLHPDYFTSFWRLHYLLLHTDGPLASSWRHYIAIMAAARHQCSYLVGSHMAEFLQTGGDPEWLLGLHRAPEKLRKLSEINKLLAHRPWLITKEHIQALLKTGEHTWWLAELIQALVLLTHCHSLSSFVFGCGILPEGDADGSPAPQAPTPPSEQSSPPSRDPLNNSGGFESARDVEALMERMQQLQESLLRDEGTSQEEMESRFELEKSESLLVTPSADILEPSPHPDMLCFVEDPTFGYEDFTRRGAQAPPTFRAQDYTWEDHGYSLIQRLYPEGGQLLDEKFQAAYSLTYNTIAMHSGVDTSVLRRAIWNYIHCVFGIRYDDYDYGEVNQLLERNLKVYIKTVACYPEKTTRRMYNLFWRHFRHSEKVHVNLLLLEARMQAALLYALRAITRYMT [S190W]
